Measurements published in PMC12159680, “Nuclear protein FNBP4: A novel inhibitor of non-diaphanous formin FMN1-mediated actin cytoskeleton dynamics” (The Journal of Biological Chemistry, 2025).

T1: Extended FH2 FMN1 (mouse, UniProt Q05860 961-1466)
T1 sequence (looked up): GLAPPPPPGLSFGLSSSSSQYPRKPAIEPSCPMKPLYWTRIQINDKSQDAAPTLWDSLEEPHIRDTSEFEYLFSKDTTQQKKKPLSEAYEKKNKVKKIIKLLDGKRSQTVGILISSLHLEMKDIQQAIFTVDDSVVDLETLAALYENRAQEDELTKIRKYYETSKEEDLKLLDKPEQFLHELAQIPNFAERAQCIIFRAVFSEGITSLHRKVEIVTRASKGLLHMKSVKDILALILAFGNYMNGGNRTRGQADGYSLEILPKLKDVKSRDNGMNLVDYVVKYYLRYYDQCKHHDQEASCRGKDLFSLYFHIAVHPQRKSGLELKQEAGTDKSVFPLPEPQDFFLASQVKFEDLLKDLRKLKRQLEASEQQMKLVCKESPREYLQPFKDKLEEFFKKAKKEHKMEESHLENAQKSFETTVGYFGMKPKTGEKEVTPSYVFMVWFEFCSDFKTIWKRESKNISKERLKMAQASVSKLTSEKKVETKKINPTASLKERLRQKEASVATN


Columns and labels:
[1] = target: FMN1 FH1-FH2 (Mus musculus) (UniProt Q05860); conditions: cited from earlier work
Extended FH2 FMN1 = target: T1, Extended FH2 FMN1; test: SPR; Biacore T200; WW1-WW2 FNBP4 amine-coupled to a CM5 chip (1016.5 RU); Extended FH2 FMN1 flowed over at various concentrations; HBS-N running buffer; 25 °C; association 120 s, dissociation 380 s; global fit to a 1:1 Langmuir model; conditions: both partners purified

FMN1 FH1-FH2 (Mus musculus), sequence (Q05860 870-1435): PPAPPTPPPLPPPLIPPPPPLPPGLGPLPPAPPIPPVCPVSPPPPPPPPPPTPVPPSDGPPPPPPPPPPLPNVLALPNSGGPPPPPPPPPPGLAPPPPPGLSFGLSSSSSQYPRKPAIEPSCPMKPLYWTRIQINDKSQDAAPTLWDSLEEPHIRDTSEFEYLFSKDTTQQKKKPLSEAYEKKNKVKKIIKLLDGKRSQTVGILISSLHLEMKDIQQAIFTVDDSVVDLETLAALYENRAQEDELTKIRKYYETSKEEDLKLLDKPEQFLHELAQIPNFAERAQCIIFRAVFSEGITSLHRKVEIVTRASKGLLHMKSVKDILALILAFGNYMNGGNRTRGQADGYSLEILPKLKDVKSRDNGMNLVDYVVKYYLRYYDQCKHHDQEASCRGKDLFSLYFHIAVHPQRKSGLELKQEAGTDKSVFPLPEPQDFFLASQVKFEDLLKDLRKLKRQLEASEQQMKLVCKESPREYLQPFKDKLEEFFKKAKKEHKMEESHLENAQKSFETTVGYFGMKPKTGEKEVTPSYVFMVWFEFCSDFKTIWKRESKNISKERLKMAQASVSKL
FNBP4 WW1-WW2, sequence (Q6ZQ03 218-637): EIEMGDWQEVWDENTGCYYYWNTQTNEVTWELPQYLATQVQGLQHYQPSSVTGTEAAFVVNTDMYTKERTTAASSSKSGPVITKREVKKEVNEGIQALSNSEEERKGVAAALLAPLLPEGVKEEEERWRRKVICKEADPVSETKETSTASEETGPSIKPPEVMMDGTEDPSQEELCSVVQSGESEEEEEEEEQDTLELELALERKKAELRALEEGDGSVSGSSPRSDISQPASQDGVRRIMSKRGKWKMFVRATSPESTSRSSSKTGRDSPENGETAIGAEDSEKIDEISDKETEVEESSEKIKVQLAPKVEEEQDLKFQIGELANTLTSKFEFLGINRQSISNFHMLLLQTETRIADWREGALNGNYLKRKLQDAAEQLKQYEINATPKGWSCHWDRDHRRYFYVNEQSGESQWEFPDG

| Kd (Extended FH2 FMN1) | koff (Extended FH2 FMN1) | kon (Extended FH2 FMN1) | Molecule | Kd [1] |
| --- | --- | --- | --- | --- |
|  |  |  | FNBP4 WW1-WW2 (from UniProt Q6ZQ03) | 2 nM |
| 36.5 nM | 0.000803 s⁻¹ | 22500 M⁻¹ s⁻¹ | N-terminal WW1-WW2 FNBP4 (domain or fragment, human, UniProt Q8N3X1 214-629, looked up) GIEMGDWQEVWDENTGCYYYWNTQTNEVTWELPQYLATQVQGLQHYQPSSVPGAETSFVVNTDIYSKEKTISVSSSKSGPVIAKREVKKEVNEGIQALSNSEEEKKGVAASLLAPLLPEGIKEEEERWRRKVICKEEPVSEVKETSTTVEEATTIVKPQEIMLDNIEDPSQEDLCSVVQSGESEEEEEQDTLELELVLERKKAELRALEEGDGSVSGSSPRSDISQPASQDGMRRLMSKRGKWKMFVRATSPESTSRSSSKTGRDTPENGETAIGAENSEKIDENSDKEMEVEESPEKIKVQTTPKVEEEQDLKFQIGELANTLTSKFEFLGINRQSISNFHVLLLQTETRIADWREGALNGNYLKRKLQDAAEQLKQYEINATPKGWSCHWDRDHRRYFYVNEQSGESQWEFPDG |  |
